Assay results taken from patent US20140274782A1, “AFFINITY REAGENTS AND METHODS FOR DETECTION, PURIFICATION, AND PROTEOMIC ANALYSIS OF METHYLATED PROTEINS” (The Board of Trustees of the Leland Stanford Junior …, priority 2013, published 2014).

Experiments:
3×MBT domain of L3MBTL1 = experiment: Triple SILAC pull-down, 3xMBT/3xMBTD355N ratio (cytoplasmic, nuclear and chromatin fractions of 293T cells); format: binding, human; details: SILAC ratio, pull-down 3xMBT vs 3xMBTD355N; for 3xMBT/D355N UNC Heavy: experiment with UNC0638 in heavy SILAC media; for 3xMBT/D355N UNC Light: experiment with UNC0638 in light SILAC media;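 as to all read-outs here: proteins quantified with MaxQuant, requiring at least two unique peptides and quantification in both label directions, normalized to the mean of proteins from a digested loading control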
G9a and GLP = molecular target: T1, G9a and GLP (Homo sapiens, UniProt Q96KQ7+Q9H9B1); experiment: Triple SILAC pull-down after UNC0638 treatment of 293T cells, DMSO/UNC0638 ratio of protein captured by 3×MBT; format: cell-based; parameters: endogenous in cells; host or cells: HEK 293T; details: for Relative to UNC0638 UNC Heavy / Relative to UNC0638 UNC Light: SILAC ratio DMSO/UNC0638 of protein pulled down with 3xMBT; for Relative to UNC0638 UNC Heavy: UNC0638 in heavy SILAC media; for Relative to UNC0638 UNC Light: UNC0638 in light SILAC media; for Relative to UNC0638 Average: average of UNC Light and UNC Heavy experiments;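 as to all read-outs here: mass spectrometry (Q-Exactive) SILAC quantitation, DMSO/UNC0638 ratio computed after subtracting 3×MBTD355N mutant pull-down background, only proteins with at least twofold 3×MBT over mutant signal considered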
T1 sequence (Q96KQ7 2-1210 limits assumed): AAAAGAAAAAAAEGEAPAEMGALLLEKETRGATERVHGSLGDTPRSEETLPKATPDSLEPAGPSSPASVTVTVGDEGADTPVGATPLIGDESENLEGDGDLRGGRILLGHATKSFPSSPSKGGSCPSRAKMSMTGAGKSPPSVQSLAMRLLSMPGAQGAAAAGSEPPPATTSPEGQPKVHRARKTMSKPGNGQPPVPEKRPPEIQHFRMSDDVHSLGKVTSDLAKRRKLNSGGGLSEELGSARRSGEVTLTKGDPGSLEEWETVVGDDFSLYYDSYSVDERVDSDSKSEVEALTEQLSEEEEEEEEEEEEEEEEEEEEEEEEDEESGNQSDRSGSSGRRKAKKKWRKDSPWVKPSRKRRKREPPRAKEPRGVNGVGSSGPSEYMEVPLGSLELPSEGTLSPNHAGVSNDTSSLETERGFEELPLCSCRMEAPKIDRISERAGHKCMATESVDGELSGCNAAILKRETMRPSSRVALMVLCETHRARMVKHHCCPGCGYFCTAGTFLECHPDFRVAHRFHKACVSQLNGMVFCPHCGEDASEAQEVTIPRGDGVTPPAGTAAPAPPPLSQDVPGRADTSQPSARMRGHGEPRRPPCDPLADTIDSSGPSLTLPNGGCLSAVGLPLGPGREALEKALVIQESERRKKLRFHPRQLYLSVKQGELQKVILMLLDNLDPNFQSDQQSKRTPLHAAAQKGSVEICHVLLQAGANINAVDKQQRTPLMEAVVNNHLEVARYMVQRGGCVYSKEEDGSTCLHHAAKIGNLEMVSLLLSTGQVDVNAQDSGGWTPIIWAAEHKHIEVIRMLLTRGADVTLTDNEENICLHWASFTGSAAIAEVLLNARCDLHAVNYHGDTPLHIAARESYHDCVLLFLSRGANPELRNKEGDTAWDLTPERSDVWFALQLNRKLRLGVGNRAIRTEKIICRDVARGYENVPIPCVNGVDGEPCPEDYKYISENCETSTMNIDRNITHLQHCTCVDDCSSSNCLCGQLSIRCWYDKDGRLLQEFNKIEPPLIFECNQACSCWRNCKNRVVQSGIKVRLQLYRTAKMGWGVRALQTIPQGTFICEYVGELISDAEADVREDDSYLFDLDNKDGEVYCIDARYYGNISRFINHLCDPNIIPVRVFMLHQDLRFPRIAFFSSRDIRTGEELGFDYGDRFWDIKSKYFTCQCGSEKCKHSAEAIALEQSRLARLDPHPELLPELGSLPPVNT
T1 sequence (Q9H9B1 2-1298 limits assumed): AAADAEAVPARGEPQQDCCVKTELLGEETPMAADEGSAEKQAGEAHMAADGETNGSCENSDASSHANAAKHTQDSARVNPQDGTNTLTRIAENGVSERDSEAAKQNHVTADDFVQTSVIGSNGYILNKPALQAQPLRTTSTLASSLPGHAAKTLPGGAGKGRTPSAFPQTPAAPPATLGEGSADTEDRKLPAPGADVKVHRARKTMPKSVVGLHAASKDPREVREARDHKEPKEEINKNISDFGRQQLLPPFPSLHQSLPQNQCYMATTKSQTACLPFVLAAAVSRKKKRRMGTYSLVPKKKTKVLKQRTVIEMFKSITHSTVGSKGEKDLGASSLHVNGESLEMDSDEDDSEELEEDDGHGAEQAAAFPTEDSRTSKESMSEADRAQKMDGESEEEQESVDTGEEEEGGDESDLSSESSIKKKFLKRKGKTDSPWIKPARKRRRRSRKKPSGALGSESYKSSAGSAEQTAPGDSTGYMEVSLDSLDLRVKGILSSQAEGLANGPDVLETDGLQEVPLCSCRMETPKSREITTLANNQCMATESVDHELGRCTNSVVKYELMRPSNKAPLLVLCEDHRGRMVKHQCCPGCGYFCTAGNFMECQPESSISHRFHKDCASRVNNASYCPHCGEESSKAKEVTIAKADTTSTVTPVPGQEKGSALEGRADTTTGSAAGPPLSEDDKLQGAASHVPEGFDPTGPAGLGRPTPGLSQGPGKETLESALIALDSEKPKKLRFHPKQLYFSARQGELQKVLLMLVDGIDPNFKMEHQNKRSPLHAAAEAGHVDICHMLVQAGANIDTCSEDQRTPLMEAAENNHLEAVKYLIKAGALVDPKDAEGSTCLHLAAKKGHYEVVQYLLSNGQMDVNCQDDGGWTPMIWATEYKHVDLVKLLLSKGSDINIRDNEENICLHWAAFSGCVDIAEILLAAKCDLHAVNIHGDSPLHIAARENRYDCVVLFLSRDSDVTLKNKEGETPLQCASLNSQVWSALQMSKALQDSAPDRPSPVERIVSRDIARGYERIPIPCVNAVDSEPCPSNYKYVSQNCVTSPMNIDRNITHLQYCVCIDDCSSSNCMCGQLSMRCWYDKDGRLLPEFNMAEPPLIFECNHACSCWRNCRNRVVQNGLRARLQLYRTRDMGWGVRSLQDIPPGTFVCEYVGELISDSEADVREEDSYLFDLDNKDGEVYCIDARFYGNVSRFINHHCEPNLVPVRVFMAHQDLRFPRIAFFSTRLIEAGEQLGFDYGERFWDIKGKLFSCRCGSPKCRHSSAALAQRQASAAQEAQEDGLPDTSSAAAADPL

B1: U2AF1 (protein, UniProt Q01081 2-240, looked up)
Splicing factor U2AF 35 kDa …: AEYLASIFGTEKDKVNCSFYFKIGACRHGDRCSRLHNKPTFSQTIALLNIYRNPQNSSQSADGLRCAVSDVEMQEHYDEFFEEVFTEMEEKYGEVEEMNVCDNLGDHLVGNVYVKFRREEDAEKAVIDLNNRWFNGQPIHAELSPVTDFREACCRQYEMGECTRGGFCNFMHLKPISRELRRELYGRRRKKHRSRSRSRERRSRSRDRGRGGGGGGGGGGGGRERDRRRSRDRERSGRF
Q: Which results are given for B1?
A: 3xMBT/D355N UNC Heavy (3×MBT domain of L3MBTL1): 3.19 log base 2; 3xMBT/D355N UNC Light (3×MBT domain of L3MBTL1): 2.52 log base 2; Relative to UNC0638 UNC Heavy (G9a and GLP): 0.20 log base 2; Relative to UNC0638 UNC Light (G9a and GLP): 0.08 log base 2; Relative to UNC0638 Average (G9a and GLP): 0.14 log base 2

B2: DCAF7 (protein, UniProt P61962 1-342, looked up)
DDB1- and CUL4-associated …: MSLHGKRKEIYKYEAPWTVYAMNWSVRPDKRFRLALGSFVEEYNNKVQLVGLDEESSEFICRNTFDHPYPTTKLMWIPDTKGVYPDLLATSGDYLRVWRVGETETRLECLLNNNKNSDFCAPLTSFDWNEVDPYLLGTSSIDTTCTIWGLETGQVLGRVNLVSGHVKTQLIAHDKEVYDIAFSRAGGGRDMFASVGADGSVRMFDLRHLEHSTIIYEDPQHHPLLRLCWNKQDPNYLATMAMDGMEVVILDVRVPCTPVARLNNHRACVNGIAWAPHSSCHICTAADDHQALIWDIQQMPRAIEDPILAYTAEGEINNVQWASTQPDWIAICYNNCLEILRV
Q: Which results are given for B2?
A: 3xMBT/D355N UNC Heavy (3×MBT domain of L3MBTL1): 1.67 log base 2; 3xMBT/D355N UNC Light (3×MBT domain of L3MBTL1): 1.31 log base 2; Relative to UNC0638 UNC Heavy (G9a and GLP): 0.69 log base 2; Relative to UNC0638 UNC Light (G9a and GLP): 0.48 log base 2; Relative to UNC0638 Average (G9a and GLP): 0.59 log base 2; Candidate G9a/GLP target (G9a and GLP; reduced association with 3xMBT after UNC0638 treatment): ✓

B3: DENR (protein, UniProt O43583 2-198, looked up)
Density-regulated protein: AADISESSGADCKGDPRNSAKLDADYPLRVLYCGVCSLPTEYCEYMPDVAKCRQWLEKNFPNEFAKLTVENSPKQEAGISEGQGTAGEEEEKKKQKRGGRGQIKQKKKTVPQKVTIAKIPRAKKKYVTRVCGLATFEIDLKEAQRFFAQKFSCGASVTGEDEIIIQGDFTDDIIDVIQEKWPEVDDDSIEDLGEVKK
Q: How did the “3xMBT/D355N UNC Heavy” value (3×MBT domain of L3MBTL1) turn out when B3 was run?
A: The value was 2.50 log base 2.

Q: And the “3xMBT/D355N UNC Light” value (3×MBT domain of L3MBTL1)?
A: The value was 3.36 log base 2.

Q: And the “Relative to UNC0638 UNC Heavy” value (G9a and GLP)?
A: The value was 0.09 log base 2.

Q: What about the “Relative to UNC0638 UNC Light” value (G9a and GLP) of the same molecule?
A: The value was 0.20 log base 2.

Q: And the “Relative to UNC0638 Average” value (G9a and GLP)?
A: Its value is 0.14 log base 2.
